Results on two substances are retold here after publication PMC5441900.

Assay [1] concerns the target VI (vacuolar invertase) extracted from mature soybean leaves (Glycine max (endogenous in mature leaves)).
Assay [2] has as its target CWI (cell wall invertase) extracted from mature soybean leaves (Glycine max (endogenous in mature leaves)).

On to recombinant GmCIF1 (natural protein), for which the inhibition of VI activity (glucose released from sucrose) of a leaf soluble fraction after 30 min at 37 °C with recombinant GmCIF1; maximum at about 50 ng, no further effect at 100 ng and 1000 ng in assay [1] stood at 70%.
In the case of recombinant GmC/VIF2 (natural protein), the inhibition of CWI activity (glucose released from sucrose) of a leaf cell-wall preparation after 30 min at 37 °C with recombinant GmC/VIF2; maximum at about 100 ng in assay [2] turned out to be 80%. Further, the inhibition of VI activity (glucose released from sucrose) of a leaf soluble fraction after 30 min at 37 °C with recombinant GmC/VIF2; maximum at about 100 ng in assay [1] is 75%.
